Consider 6 sequences from the DeepSol protein solubility set.

A short description of the series: soluble on expression in E. coli; label from the status in PepcDB or PDB records.
As to “MHHHHHHSSGVDLGTENLYFQSMTKTWTLKKHFVGYPTNSDFELKTSELPPLKNGEVLLEALFLTVDPYMRVAAKRLKEGDTMMGQQVAKVVESKNVALPKGTIVLASPGWTTHSISDGKDLEKLLTEWPDTIPLSLALGTVGMPGLTAYFGLLEICGVKGGETVMVNAAAGAVGSVVGQIAKLKGCKVVGAVGSDEKVAYLQKLGFDVVFNYKTVESLEETLKKASPDGYDCYFDNVGGEFSNTVIGQMKKFGRIAICGAISTYNRTGPLPPGPPPEIVIYQELRMEAFVVYRWQGDARQKALKDLLKWVLEGKIQYKEYIIEGFENMPAAFMGMLKGDNLGKTIVKA”, the “soluble on expression in E. coli” value is listed as “soluble”.

With “MGSDKIHHHHHHMLEGEFLSVAELKDLTLSLASKFLNNLLASKLLVSKQLFIDRKKELGLLEERLKSGKAQFIVIYGRRRVGKTALILEFLRRHGGLYLLARETSEIENLERFSLRLAEYFNDSFLKKNPLRSLDAFFEYLSTKAEKPFIIAIDEFPYLVKGNKALPSILQEYWEMKLSKKKIFLIVSGSSVSMTERLLGYKSPLYGRRTAQLKLKPLDFFNAREFLPKYSLEDFVRVYGILGGTPAYLLEFSDEKSLEENLKSYFRVDSLLYGDALFILREELDEPRNYFAIMEAIARGNTTLGEIVNETGLERATVGKYLSVLIDLDLVRREVPITASRKSRKGRYYIADNYFAFWFRYVYPNADLIESGNGELLVDTVMDDIDHYTGEVFEGVAKEFLLRLNKSERLPFRFSRVGRWWYKNEEIDLVALNEREKKVLFIEVKWKDLSKREARGILKDLKRKAKLVGLDEWGKHYGLVAKSVRGKDEIKEEGWLAWDLEDIHRMAF”, the “soluble on expression in E. coli” value is listed as “not soluble”.

As to “MGSDKIHHHHHHGGLGDKSFNDGTWAGIKQAAEELGIEAKVIQSYEQSDYIPNLSKAAEEADLVFAVGFMMTNDLFKVAKQYPDTYFVGIDITPPEGQILPNVLTFTFKEQEAAFLVGYVAAAMTKTGMVGFVGGIPIPPVERFRYGYEAGIKTYSVLHKKNVKILRGYTQDFEDPKKGKDLAMSQFAEGADIVFHASGACGNGVIEAAREKFSALAGSDKLVDLIDYYTTNGKGFFAIGVDMDQDYMAPGAVLTSAMKRVDVASYYGVVWAYEGTFEGGHRVLGISEDAVGISPMKYTKGLVPNRVIAELLYLEKLMKEGTLKVPETQEELDAFEVPQIEFPF”, the “soluble on expression in E. coli” value was “not soluble”.

Take “MNIRDYIRENEARFLEDLFALIRIPSVSAKSEHKPDMQRCAEHWRDHLLQVGAQKAEVFQTPGNPVVYAERIMDPKAKTILVYAHYDVMPPEPLELWKSEPFEPVIRDGHIWARGADDDKGQGMIQVKGFETALALGLVQCNVKFLFEGEEEIGSTNLEAFCRAHKEMLSADVIIVSDTSMVSAETPSLTTGLRGLAYWEMEVTGPNRDLHSGHFGGAVANPINELCKLIAGIVDENGRITIPHFYDDVVPLSDEERQMIAQVPFSEEKYCQALDIDTVFGEAGYSTLERNSCRPSFDVCGIWGGYTGEGAKTVLPSKAYAKVSSRLVANQDHEKISQMFIDYIRSVAPKHIKVKVTPLHGGEAYLCPIDLPAYKAAEEACTIAFGKRPLAVRRGGSIPIIATFEKVLGLKTVLMGFGLESNAIHSPNENMPLDIFRKGIESVAEFYRIYK”: the “soluble on expression in E. coli” value is reported as “not soluble”.

As to “MSLSDDSMIDAPLTRADAVSEKIVFQDDFNQVDSIPDRNKWSLCKKGSPAWSKYLSESYDQAYVHDGKLVLVAEKVNGVYKTGGVQSLGKAEFQYGKIEICARFTKTAKGGWPAIWMMPAKPVYSGWPACGEIDIMEQLNHDGIVYQTIHSHYKNDLGFTKPVPTKTVSYNKGQFNIFGIEWTPEALTFKVNGATTLVYPNLHLADESVKKQWPFDTSFYLILNYALGGPGTWPGTIMDSELPAKMEIDWVKVSQPRGREGHHHHHH”, the “soluble on expression in E. coli” value is on record as “soluble”.

For “MEIKGESMQKSKFRRICVFCGSSQGKKSSYQDAAVDLGNELVSRNIDLVYGGGSIGLMGLVSQAVHDGGRHVIGIIPKTLMPRELTGETVGEVRAVADMHQRKAEMAKHSDAFIALPGGYGTLEELLEVITWAQLGIHDKPVGLLNVDGYYNSLLSFIDKAVEEGFISPTAREIIVSAPTAKELVKKLEEYAPCHERVATKLCWEMERIGYSSEE”, the “soluble on expression in E. coli” value is “soluble”.
